The results in this text go back to paper PMC11410670, “Growth of complete ammonia oxidizers on guanidine” (Nature, 2024).

Data set [1] addresses Nitrospira inopinata guanidinase (Nitrospira inopinata). The data set can be described thus: SEC-MALS; Superdex 200 Increase 10/300 GL, 20 °C, 20 mM HEPES, 150 mM NaCl, pH 7.4; 80 µl injected at 1 mg/ml; hexamer in solution.
Substrate in data set [2]: N=C(N)N
In words: urea production, thiosemicarbazide-diacetylmonoxime colorimetry, Michaelis-Menten fit. Format: biochemical, Candidatus Nitrospira inopinata. The settings on record: pH 7.5, 37 °C, 20 mM Tris-HCl, 50 mM NaCl, enzyme expressed with 1 mM NiSO4 and assayed with 1 mM Ni2+.

“Nitrospira inopinata guanidinase (enzyme)” showed a stoichiometry N in data set [1] of 6.

B1: N. inopinata guanidinase (Candidatus Nitrospira inopinata) (protein)
chain: MAKKRTYQGKVPLHDNYGPEAKYAVEAEALLPTTKFEEEIARGLELGLPGADSIKDRRIPTFSRGELPHFAGINTFIKAPYVEDVRKCGQYDVAILGAPFDGGTTYRAGTRFGPQGIRKISALYGTYSFELGVDLRESVSICDVGDIFTIPGNIEKTFDQVSKGVGHVFASGAFPVVLGGDHSLGFATVRGVAQHLNGKKLGILHFDRHVDTQDTDLDERMHTTPWFHATNIPNVPAKNLVQIGIGGWQAPRPGVKAGRERQTTIMTVTDCVEMGIENAAKQALEVAFDGVDAVWLSFDVDCLDAAFVPGTGWPEPGGFLPREVLKFLQIIADTKPLAGMEIVECAPPYDAAEITSLMATRVICDVLACQVRSGHLGNRKKR
notes: full-length, N-terminal His6-MBP tag (pCoofy4) cleaved with HRV-3C; E. coli; homohexamer 240 kDa; Ni/Mn; N-terminus from primer MAKKRTY; residues T105, H182, D207, H209, D211, H222, D299, D301, W313, E344
Consider B1, for which the Michaelis-Menten constant (Km) in data set [2] came out at 13.6 ± 0.76 mM.
